Results taken from patent US20120121587A1 (Chugai, published 2012).
Read-outs that look alike come from different tables or passages of the source.

T1: Human recombinant AXL-FND1 (GST-FND1), from pET-41b(+) (human, UniProt P30530 225-331)
T1 construct: Expressed in E. coli, purified on Glutathione Sepharose; analyte in all Biacore measurements; GST put first by the usual layout of pET-41; not shown: GST-tag of vector pET-41b(+) (Novagen)
T1 sequence (looked up): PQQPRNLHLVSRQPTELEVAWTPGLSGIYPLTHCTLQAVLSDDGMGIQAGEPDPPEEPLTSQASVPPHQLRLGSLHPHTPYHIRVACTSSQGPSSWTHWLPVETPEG


Experiments:
[1] = molecular target: T1, Human recombinant AXL-FND1 (GST-FND1), …; experiment: SPR (Biacore T100): antibody captured on Protein A, GST-FND1 as analyte
Experimental: Kinetic analyses of antigen-antibody reactions of humanized AXL antibodies were carried out using Biacore T100 (BIACORE). rec-Protein A (Zymed) (hereinafter, Protein A) was immobilized onto a sensor chip, various antibodies were bound to it, then an antigen as the analyte was flushed to measure the antibody-antigen interaction. Human recombinant AXL-FND1 (prepared in 2-2; hereinafter referred to as GST-FND1) prepared at various concentrations was used as the antigen. From the sensorgrams obtained through the measurements, kinetic parameters, namely binding rate constant kₐ (1/Ms) and dissociation rate constant kd (1/s), were calculated, and Kd (M) was calculated based on these values. Biacore T100 Evaluation Software (BIACORE) was used to calculate each of the parameters.
The sensor chips were produced by immobilizing approximately 3000 RU of Protein A onto CM5 (BIACORE) by amine coupling. Using the produced sensor chip, kinetic analyses were carried out on the interaction between the Protein A-bound antibodies and GST-FND1. HBS-EP+ was used as the running buffer, and the flow rate was set to 30 μL/min. Each antibody was prepared at 1 μg/mL using the running buffer, and was subjected to binding with Protein A for two minutes. GST-FND1 as the analyte was prepared at 0.5 and 2.0 μg/mL using HBS-EP+. Measurements were carried out by first binding the various humanized AXL antibodies, chimeric AXL antibodies, or mouse AXL antibodies of interest to Protein A, then applying an analyte solution to them for a two-minute interaction, and then switching to HBS-EP+ (BIACORE) for a two-minute measurement of the dissociation phase. After completion of measurement of the dissociation phase, 30 μL of 10 mM glycine-HCl (pH 2.0) was used for washing to regenerate the sensor chip. Such binding, dissociation, and regeneration were defined as one cycle of analysis. All experiments were performed at 25° C.
Affinity measurements on the produced variants were carried out by the method of Example 2.

[2] = molecular target: T1, Human recombinant AXL-FND1 (GST-FND1), …; experiment: as above; remark: listed apart in the source
Outline: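 Antibodies (1 μg/mL) were captured for 2 min on a Protein A CM5 chip. GST-FND1 (0.5 and 2.0 μg/mL) in HBS-EP+ was flowed at 30 μL/min with 2 min association and 2 min dissociation at 25° C. ka and kd were fitted from sensorgrams and Kd was calculated from them.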

Kd [1] [nM]	Kd [2] [nM]	Binder
3.6	–	H9/L36 (antibody, human IgG1, kappa, V domains shown) VH: QVTLKESGPVLVKPTETLTLTCTVSGFSLSSFGVDWVRQAPGKGLEWMGVIWGGGSTNYNSALKSRLTISKDNSKSQVVLTMTNMDPVDTATYYCAGEGSKYGAWFAYWGQGTLVTVSS VL: DVVMTQSPLSLPVTLGQPASISCRSSQNIVHTNANTYLEWYQQKPGKAPELLIYKVSNRFSGVPDRFSGSGSGTDFTLKISRVEAEDVGVYYCFQGSHIPFTFGQGTKLEIKR
–	1.92	H49/L11 (antibody, human IgG1, kappa) heavy: not shown light: DVVMTQSPLSLPVTLGQPASISCQSSQNIVHTNGNTYLEWYQQKPGKAPELLIYKVSNRFSGVPDRFSGSGSGTDFTLKISRVEAEDVGVYYCFQGSHIPFTFGQGTKVEIERTVAAPSVFIFPPSDEQLKSGTASVVCLLNNFYPREAKVQWKVDNALQSGNSQESVTEQDSKDSTYSLSSTLTLSKADYEKHKVYACEVTHQGLSSPVTKSFNRGEC
–	2.08	H49/L27 (antibody, human IgG1, kappa) heavy: not shown light: DVVMTQSPLSLPVTLGQPASISCRSSRNIVHTNGNTYLEWYQQKPGKAPELLIYKVSNRFSGVPDRFSGSGSGTDFTLKISRVEAEDVGVYYCFQGSHIPFTFGQGTKLEIKRTVAAPSVFIFPPSDEQLKSGTASVVCLLNNFYPREAKVQWKVDNALQSGNSQESVTEQDSKDSTYSLSSTLTLSKADYEKHKVYACEVTHQGLSSPVTKSFNRGEC
–	2.11	H49/L28 (antibody, human IgG1, kappa) heavy: not shown light: DVVMTQSPLSLPVTLGQPASISCRSSQNIVHTNGNTYLEWYQQKPGKAPKLLIYKVSNRFSGVPDRFSGSGSGTDFTLKISRVEAEDVGVYYCFQGSHIPFTFGQGTKLEIKRTVAAPSVFIFPPSDEQLKSGTASVVCLLNNFYPREAKVQWKVDNALQSGNSQESVTEQDSKDSTYSLSSTLTLSKADYEKHKVYACEVTHQGLSSPVTKSFNRGEC
–	1.94	H49/L31 (antibody, human IgG1, kappa) heavy: not shown light: DVVMTQSPLSLPVTLGQPASISCRSSRNIVHTNGNTYLEWYQQKPGKAPKLLIYKVSNRFSGVPDRFSGSGSGTDFTLKISRVEAEDVGVYYCFQGSHIPFTFGQGTKLEIKRTVAAPSVFIFPPSDEQLKSGTASVVCLLNNFYPREAKVQWKVDNALQSGNSQESVTEQDSKDSTYSLSSTLTLSKADYEKHKVYACEVTHQGLSSPVTKSFNRGEC
–	2.21	H49/L34 (antibody, human IgG1, kappa) heavy: not shown light: DVVMTQSPLSLPVTLGRPASISCRSSRNIVHTNGNTYLEWYQQKPGKAPKLLIYKVSNRFSGVPDRFSGSGSGTDFTLKISRVEAEDVGVYYCFQGSHIPFTFGQGTKLEIKRTVAAPSVFIFPPSDEQLKSGTASVVCLLNNFYPREAKVQWKVDNALQSGNSQESVTEQDSKDSTYSLSSTLTLSKADYEKHKVYACEVTHQGLSSPVTKSFNRGEC
–	2.08	H49/L35 (antibody, human IgG1, kappa) heavy: not shown light: DVVMTQSPLSLPVTLGQPASISCRSSRNIVHTNGNTYLEWYQQKPGKAPKLLIYKVSNRFSGVPDRFSGSGSGTDFTLKISRVEAEDVGVYYCFQGSHIPFTFGRGTKLEIKRTVAAPSVFIFPPSDEQLKSGTASVVCLLNNFYPREAKVQWKVDNALQSGNSQESVTEQDSKDSTYSLSSTLTLSKADYEKHKVYACEVTHQGLSSPVTKSFNRGEC
–	2.43	H49/L37 (antibody, human IgG1, kappa) heavy: not shown light: DVVMTQSPLSLPVTLGRPASISCRSSRNIVHTNGNTYLEWYQQKPGKAPKLLIYKVSNRFSGVPDRFSGSGSGTDFTLKISRVEAEDVGVYYCFQGSHIPFTFGRGTKLEIKRTVAAPSVFIFPPSDEQLKSGTASVVCLLNNFYPREAKVQWKVDNALQSGNSQESVTEQDSKDSTYSLSSTLTLSKADYEKHKVYACEVTHQGLSSPVTKSFNRGEC
–	1.89	H50/L0 (antibody, human IgG1, kappa) heavy: not shown light: DVVMTQSPLSLPVTLGQPASISCRSSQNIVHTNGNTYLEWYQQKPGKAPELLIYKVSNRFSGVPDRFSGSGSGTDFTLKISRVEAEDVGVYYCFQGSHIPFTFGQGTKLEIKRTVAAPSVFIFPPSDEQLKSGTASVVCLLNNFYPREAKVQWKVDNALQSGNSQESVTEQDSKDSTYSLSSTLTLSKADYEKHKVYACEVTHQGLSSPVTKSFNRGEC
–	1.86	H50/L1 (antibody, human IgG1, kappa) heavy: not shown light: DVVMTQSPLSLPVTLGQPASISCQSSQNIVHTNGNTYLEWYQQKPGKAPELLIYKVSNRFSGVPDRFSGSGSGTDFTLKISRVEAEDVGVYYCFQGSHIPFTFGQGTKLEIKRTVAAPSVFIFPPSDEQLKSGTASVVCLLNNFYPREAKVQWKVDNALQSGNSQESVTEQDSKDSTYSLSSTLTLSKADYEKHKVYACEVTHQGLSSPVTKSFNRGEC
–	1.9	H50/L10 (antibody, human IgG1, kappa) heavy: not shown light: DVVMTQSPLSLPVTLGQPASISCRSSQNIVHTNGNTYLEWYQQKPGKAPELLIYKVSNRFSGVPDRFSGSGSGTDFTLKISRVEAEDVGVYYCFQGSHIPFTFGQGTKVEIERTVAAPSVFIFPPSDEQLKSGTASVVCLLNNFYPREAKVQWKVDNALQSGNSQESVTEQDSKDSTYSLSSTLTLSKADYEKHKVYACEVTHQGLSSPVTKSFNRGEC
–	1.82	H50/L11 (antibody, human IgG1, kappa) heavy: not shown light: DVVMTQSPLSLPVTLGQPASISCQSSQNIVHTNGNTYLEWYQQKPGKAPELLIYKVSNRFSGVPDRFSGSGSGTDFTLKISRVEAEDVGVYYCFQGSHIPFTFGQGTKVEIERTVAAPSVFIFPPSDEQLKSGTASVVCLLNNFYPREAKVQWKVDNALQSGNSQESVTEQDSKDSTYSLSSTLTLSKADYEKHKVYACEVTHQGLSSPVTKSFNRGEC
–	1.95	H50/L27 (antibody, human IgG1, kappa) heavy: not shown light: DVVMTQSPLSLPVTLGQPASISCRSSRNIVHTNGNTYLEWYQQKPGKAPELLIYKVSNRFSGVPDRFSGSGSGTDFTLKISRVEAEDVGVYYCFQGSHIPFTFGQGTKLEIKRTVAAPSVFIFPPSDEQLKSGTASVVCLLNNFYPREAKVQWKVDNALQSGNSQESVTEQDSKDSTYSLSSTLTLSKADYEKHKVYACEVTHQGLSSPVTKSFNRGEC
–	1.97	H50/L28 (antibody, human IgG1, kappa) heavy: not shown light: DVVMTQSPLSLPVTLGQPASISCRSSQNIVHTNGNTYLEWYQQKPGKAPKLLIYKVSNRFSGVPDRFSGSGSGTDFTLKISRVEAEDVGVYYCFQGSHIPFTFGQGTKLEIKRTVAAPSVFIFPPSDEQLKSGTASVVCLLNNFYPREAKVQWKVDNALQSGNSQESVTEQDSKDSTYSLSSTLTLSKADYEKHKVYACEVTHQGLSSPVTKSFNRGEC
–	1.93	H50/L31 (antibody, human IgG1, kappa) heavy: not shown light: DVVMTQSPLSLPVTLGQPASISCRSSRNIVHTNGNTYLEWYQQKPGKAPKLLIYKVSNRFSGVPDRFSGSGSGTDFTLKISRVEAEDVGVYYCFQGSHIPFTFGQGTKLEIKRTVAAPSVFIFPPSDEQLKSGTASVVCLLNNFYPREAKVQWKVDNALQSGNSQESVTEQDSKDSTYSLSSTLTLSKADYEKHKVYACEVTHQGLSSPVTKSFNRGEC
–	2.36	H50/L34 (antibody, human IgG1, kappa) heavy: not shown light: DVVMTQSPLSLPVTLGRPASISCRSSRNIVHTNGNTYLEWYQQKPGKAPKLLIYKVSNRFSGVPDRFSGSGSGTDFTLKISRVEAEDVGVYYCFQGSHIPFTFGQGTKLEIKRTVAAPSVFIFPPSDEQLKSGTASVVCLLNNFYPREAKVQWKVDNALQSGNSQESVTEQDSKDSTYSLSSTLTLSKADYEKHKVYACEVTHQGLSSPVTKSFNRGEC
–	2.24	H50/L35 (antibody, human IgG1, kappa) heavy: not shown light: DVVMTQSPLSLPVTLGQPASISCRSSRNIVHTNGNTYLEWYQQKPGKAPKLLIYKVSNRFSGVPDRFSGSGSGTDFTLKISRVEAEDVGVYYCFQGSHIPFTFGRGTKLEIKRTVAAPSVFIFPPSDEQLKSGTASVVCLLNNFYPREAKVQWKVDNALQSGNSQESVTEQDSKDSTYSLSSTLTLSKADYEKHKVYACEVTHQGLSSPVTKSFNRGEC
–	2.72	H50/L37 (antibody, human IgG1, kappa) heavy: not shown light: DVVMTQSPLSLPVTLGRPASISCRSSRNIVHTNGNTYLEWYQQKPGKAPKLLIYKVSNRFSGVPDRFSGSGSGTDFTLKISRVEAEDVGVYYCFQGSHIPFTFGRGTKLEIKRTVAAPSVFIFPPSDEQLKSGTASVVCLLNNFYPREAKVQWKVDNALQSGNSQESVTEQDSKDSTYSLSSTLTLSKADYEKHKVYACEVTHQGLSSPVTKSFNRGEC
